Residue numbers refer to the chain shown, from its start. In names and notes the source's numbering stands.

LRP6 E1E2 protein (human), sequence (O75581 20-630 limits assumed): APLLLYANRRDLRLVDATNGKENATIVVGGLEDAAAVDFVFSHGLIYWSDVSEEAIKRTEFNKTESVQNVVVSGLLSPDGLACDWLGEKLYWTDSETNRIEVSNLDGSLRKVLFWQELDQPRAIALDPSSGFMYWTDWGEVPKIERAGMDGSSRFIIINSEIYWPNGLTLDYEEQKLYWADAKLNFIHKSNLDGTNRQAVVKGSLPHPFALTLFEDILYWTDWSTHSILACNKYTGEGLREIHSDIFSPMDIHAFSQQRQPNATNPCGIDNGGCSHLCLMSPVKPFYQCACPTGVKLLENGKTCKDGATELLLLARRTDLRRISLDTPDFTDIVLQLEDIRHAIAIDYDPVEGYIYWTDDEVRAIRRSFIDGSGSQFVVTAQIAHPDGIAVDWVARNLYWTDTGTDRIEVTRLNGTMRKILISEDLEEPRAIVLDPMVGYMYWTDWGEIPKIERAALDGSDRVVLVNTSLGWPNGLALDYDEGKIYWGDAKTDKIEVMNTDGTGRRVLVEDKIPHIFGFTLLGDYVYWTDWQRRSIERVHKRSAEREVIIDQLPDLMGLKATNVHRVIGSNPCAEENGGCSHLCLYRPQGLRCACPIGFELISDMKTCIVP

The first experiment deals with T1, human VEGF-A (human), P15692.
T1 chain: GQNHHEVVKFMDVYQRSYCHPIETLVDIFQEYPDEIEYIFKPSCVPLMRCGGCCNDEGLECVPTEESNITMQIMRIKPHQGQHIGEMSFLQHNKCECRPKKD
Put plainly: SPR.
Conditions: not given
In the case of GCNIMLPFWGCGRDFECLAGCVCQYYQSCG (designed binder, modifications not checked) [VEGF_CKP9.54.90-Alkyn], the dissociation constant Kd (in general, the equilibrium constant for the complex coming apart) was 0.00049 µM.

Another experiment deals with T2, hVEGF-A (8-109) (human, UniProt P15692 214-315).
T2 construct: residue numbers count on mature VEGF-A; dimer
T2 sequence (looked up): T1 chain
Put plainly: SPR.
Conditions: not given
The molecule GCDVMQPYWGCEMDFDCLAGCVCHWYNSCG (designed binder, also called L2.9.63.44) [VEGF_CKP9.63.44] showed a Kd of 0.0012 µM.
Same read-out and setting: then GCDVMQPYWGCGRDMDCLAGCVCHWYNSCG (designed binder, also called L2.9.63.27) [VEGF_CKP9.63.27], with 0.0014 µM; and GCDVMQPYWGCGENFLCLAGCVCHWYNSCG (designed binder, also called L2.9.63.1) [VEGF_CKP9.63.1], with 0.0058 µM.
On the same count and under the same terms, then GCDVMQPYWGCGESLSCLAGCVCHWYNSCG (designed binder, also called L2.9.63.69) [VEGF_CKP9.63.69], with 0.0069 µM.

A further experiment has as its target LRP6 E1E2 protein (human) (UniProt O75581). Put plainly: spot phage ELISA.
Conditions: not given
(In general: In an ELISA, binding on a coated surface is turned into a signal by an enzyme label.)
For GCSNRVKVRACKQDSDCLAGCVCGPNGFCG (designed binder) [LRP6_CKP19], the ELISA worked out at 3.27 and the S/N was determined as 42.
Taken in the same sequence, the figures for GCGSNKIRPRCKQDSDCLAGCVCGPNDFCG (designed binder) [LRP6_CKP14] were 3.18 and 43.5.
For the molecule GCGNKIRACKQDSDCLAGCVCRDRVGCG (designed binder) [LRP6_CKP21], the ELISA came out at 2.8 and the S/N amounted to 33.7.
In the same order, the values of GCRANRVSGRCKQDSDCLAGCVCGPNGFCG (designed binder) [LRP6_CKP18] are 1.67 and 18.3.
Taken in the same sequence, the figures for GCENRTKGCKQDSDCLAGCVCGFRGTCG (designed binder) [LRP6_CKP20] were 3.1 and 38.7.
In the same order, the values of GCANRVKRTSCKQDSDCLAGCVCGPNGFCG (designed binder) [LRP6_CKP22] are 3.43 and 42.9.
As to GCSNYVKRCKQDSDCLAGCVCSPGGRCG (designed binder) [LRP6_CKP17], the ELISA worked out at 3.09 and the S/N is 35.9.
In the same order, the values of GCNRIRNSCKQDSDCLAGCVCGRGDYCG (designed binder) [LRP6_CKP15] are 2.03 and 26.3.
Taken in the same sequence, the figures for GCSRNSIKCKQDSDCLAGCVCASGSSCG (designed binder) [LRP6_CKP16] were 3.36 and 31.1.

The target of a further experiment is T3, hVEGF-A Y21A (human, UniProt P15692 34-135).
T3 chain: T1 chain with Y14A
As to the kind of experiment: SPR.
Conditions: not given
For GCDVMQPYWGCKQDSDCLAGCVCHWYNSCG (designed binder, also called EM63) [VEGF_CKP9.63], binding was characterised by a dissociation constant (Kd) of 0.585 µM.
The same measure, in the same setting: for GCDVMQPYWGCGPDIDCLAGCVCHWYNSCG (designed binder, also called L2.9.63.12) [VEGF_CKP9.63.12] the value was 0.00984 µM; for GCNIMLPFWGCGRDFECLAGCVCQYYQSCG (designed binder) [VEGF_CKP9.54.90], 0.0035 µM; for GCNIMLPFWGCKQDSDCLAGCVCQYYQSCG (designed binder, also called EM54) [VEGF_CKP9.54], 0.317 µM.

For another experiment, the target named is T4, hVEGF-A Q89A (human, UniProt P15692 34-135).
T4 chain: T1 chain with Q82A
As to the kind of experiment: SPR.
Conditions: not given
Regarding GCDVMQPYWGCKQDSDCLAGCVCHWYNSCG (designed binder, also called EM63) [VEGF_CKP9.63], the Kd was 2 µM.
The same measure, in the same setting: for GCDVMQPYWGCGPDIDCLAGCVCHWYNSCG (designed binder, also called L2.9.63.12) [VEGF_CKP9.63.12] the value was 0.0365 µM; for GCNIMLPFWGCGRDFECLAGCVCQYYQSCG (designed binder) [VEGF_CKP9.54.90], 0.0088 µM; for GCNIMLPFWGCKQDSDCLAGCVCQYYQSCG (designed binder, also called EM54) [VEGF_CKP9.54], 1.88 µM.

The next experiment has as its target T5, hVEGF-A K48A (human, UniProt P15692 34-135).
T5 chain: T1 chain with K41A
Put plainly: SPR.
Conditions: not given
In the case of GCDVMQPYWGCKQDSDCLAGCVCHWYNSCG (designed binder, also called EM63) [VEGF_CKP9.63], the affinity, expressed as Kd, was 0.0284 µM.
For GCDVMQPYWGCGPDIDCLAGCVCHWYNSCG (designed binder, also called L2.9.63.12) [VEGF_CKP9.63.12], the Kd came to 0.00033 µM.
On the same count and under the same terms, for GCNIMLPFWGCGRDFECLAGCVCQYYQSCG (designed binder) [VEGF_CKP9.54.90] the value was 0.00019 µM.
The same measure, in the same setting: for GCNIMLPFWGCKQDSDCLAGCVCQYYQSCG (designed binder, also called EM54) [VEGF_CKP9.54] the value was 0.022 µM.

The target in another experiment is T2, hVEGF-A (8-109). Put plainly: spot phage ELISA.
Conditions: not given
In turn, GCQDPTFNWALYCKQDSDCLAGCVCQMYQSCG (designed binder) [VEGF_CKP7] had an ELISA of 3.4 and a S/N of 54.5.
In the same order, the values of GCQLMQPFWGCKQDSDCLAGCVCHWYQSCG (designed binder) [VEGF_CKP9] are 0.4 and 7.4.
For GCTTPWPPHEIMCKQDSDCLAGCVCGPNGFCG (designed binder) [VEGF_CKP12], the ELISA was 3.5 and the S/N was 55.2.
In the same order, the values of GCRDLDVKWDCKQDSDCLAGCFCQYYSSCG (designed binder) [VEGF_CKP10] are 3.2 and 43.7.
In the same order, the values of GCPTTRFKQYCKQDSDCLAGCVCGPNGFCG (designed binder) [VEGF_CKP6] are 3.5 and 51.9.

Still in this experiment, the particulars now being: record 2.
On to GCQDPTFNWALYCKQDSDCLAGCVCQMYQSCG (designed binder) [VEGF_CKP7], for which the ELISA was found to be 0.1 and the S/N turned out to be 1.3.
Taken in the same sequence, the figures for GCQLMQPFWGCKQDSDCLAGCVCHWYQSCG (designed binder) [VEGF_CKP9] were 0.9 and 11.6.

The same experiment, now with this note: record 3.
In turn, GCQLMQPFWGCKQDSDCLAGCVCHWYQSCG (designed binder) [VEGF_CKP9] yielded an ELISA of 3.3 and a S/N of 36.

A further experiment concerns the target T6, rat VEGF-A (rat, UniProt P16612-2 27-190, limits assumed).
T6 sequence (looked up): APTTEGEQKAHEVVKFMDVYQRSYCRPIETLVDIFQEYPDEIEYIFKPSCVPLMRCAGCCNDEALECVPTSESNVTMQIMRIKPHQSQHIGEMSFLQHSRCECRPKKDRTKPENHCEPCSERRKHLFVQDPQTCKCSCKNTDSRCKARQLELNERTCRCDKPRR
As to the kind of experiment: cell-based or functional assay.
Conditions: not given
Turning to GCQDPTFNWALYCKQDSDCLAGCVCQMYQSCG (designed binder) [VEGF_CKP7], the “Cellular Assay IC50, rVEGF (50 ng/ml)” value amounted to 7 µM.
With GCQLMQPFWGCKQDSDCLAGCVCHWYQSCG (designed binder) [VEGF_CKP9], the “Cellular Assay IC50, rVEGF (50 ng/ml)” value came out at 1 µM.
On the same count and under the same terms, then GCTTPWPPHEIMCKQDSDCLAGCVCGPNGFCG (designed binder) [VEGF_CKP12], with 1220 µM; and GCRDLDVKWDCKQDSDCLAGCFCQYYSSCG (designed binder) [VEGF_CKP10], with 18 µM.
Turning to GCPTTRFKQYCKQDSDCLAGCVCGPNGFCG (designed binder) [VEGF_CKP6], the “Cellular Assay IC50, rVEGF (50 ng/ml)” value came to 711 µM.

The next experiment addresses T7, human VEGF-A (human, UniProt P15692-4 34-135, limits assumed).
T7 sequence (looked up): T1 chain
As to the kind of experiment: cell-based or functional assay.
Conditions: not given
GCNIMLPFWGCGRDFECMQTCICQYYQSCG (designed binder) [VEGF_CKP9.54.90.25]: the Cellular IC50 came out at 0.00126 µM and the fold improvement relative to variant 9.54.90 (cellular IC50) stood at 1.07 fold.
For the molecule CNIMLPYWGCGRDFECLAGCVCQYYQSC (designed binder) [VEGF_CKP9.54.90 F7Y Δ2G], the Cellular IC50 was determined as 0.00301 µM and the fold improvement relative to variant 9.54.90 (cellular IC50) came to 0.44 fold.
In the same order, the values of GCNIMLPFWGCGRDFECFINCICQYYQSCG (designed binder) [VEGF_CKP9.54.90.44] are 0.00116 µM and 1.16 fold.
As to GCQDPTFNWALYCKQDSDCLAGCVCQMYQSCG (designed binder) [VEGF_CKP7], the “Cellular Assay IC50, hVEGF-A (25 ng/ml)” value came to 18 µM.
With GCDVMQPYWGCGPDIDCLSNCICHWYNSCG (designed binder) [VEGF_CKP9.63.12.12], the Cellular IC50 was found to be 0.00056 µM and the fold improvement relative to variant 9.54.90 (cellular IC50) stood at 2.41 fold.
As to GCQLMQPFWGCKQDSDCLAGCVCHWYQSCG (designed binder) [VEGF_CKP9], the “Cellular Assay IC50, hVEGF-A (25 ng/ml)” value stood at 12 µM.
Turning to GCNIMLPFWGCGRDFECMSDCICQYYQSCG (designed binder) [VEGF_CKP9.54.90.12], the Cellular IC50 turned out to be 0.0012 µM and the fold improvement relative to variant 9.54.90 (cellular IC50) is 1.12 fold.
Taken in the same sequence, the figures for GCNIMLPFWGCGRDFECMEQCICQYYQSCG (designed binder) [VEGF_CKP9.54.90.67] were 0.0011 µM and 1.23 fold.
For GCTTPWPPHEIMCKQDSDCLAGCVCGPNGFCG (designed binder) [VEGF_CKP12], the “Cellular Assay IC50, hVEGF-A (25 ng/ml)” value came out at 102 µM.
For the molecule GCNIMLPFWGCGRDFECFYECICQYYQSCG (designed binder) [VEGF_CKP9.54.90.62], the Cellular IC50 was 0.00092 µM and the fold improvement relative to variant 9.54.90 (cellular IC50) was 1.47 fold.
Taken in the same sequence, the figures for GCNIMLPFWGCGRDFECMNQCICQYYQSCG (designed binder) [VEGF_CKP9.54.90.13] were 0.00096 µM and 1.41 fold.
In the same order, the values of GCNIMLPYWGCGRDFECMNQCICQYYQSCG (designed binder) [VEGF_CKP9.54.90.13.F8Y] are 0.00202 µM and 0.67 fold.
Taken in the same sequence, the figures for GCNIMLPYWGCGRDFECFYECICQYYQSCG (designed binder) [VEGF_CKP9.54.90.62.F8Y] were 0.00114 µM and 1.18 fold.
On to GCRDLDVKWDCKQDSDCLAGCFCQYYSSCG (designed binder) [VEGF_CKP10], for which the “Cellular Assay IC50, hVEGF-A (25 ng/ml)” value was determined as 45 µM.
The same measure, in the same setting: then GCPTTRFKQYCKQDSDCLAGCVCGPNGFCG (designed binder) [VEGF_CKP6], with 47 µM.

Still in this experiment, the particulars now being: record 2.
The molecule GCDVMQPYWGCGPDIDCLSNCICHWYNSCG (designed binder) [VEGF_CKP9.63.12.12] registered a Cellular IC50 of 0.0005 µM.
On the same count and under the same terms, for GCNIMLPFWGCGRDFECMEQCICQYYQSCG (designed binder) [VEGF_CKP9.54.90.67] the value was 0.001 µM.

In another experiment the target is T8, mVEGF (mouse, UniProt Q00731-2 27-190, limits assumed).
T8 sequence (looked up): T6 sequence (looked up) with A10S, V14I, V75I
As to the kind of experiment: cell-based or functional assay.
Conditions: not given
Take GCQDPTFNWALYCKQDSDCLAGCVCQMYQSCG (designed binder) [VEGF_CKP7]: the “Cellular Assay IC50, mVEGF (50 ng/ml)” value came out at 39 µM.
On to GCQLMQPFWGCKQDSDCLAGCVCHWYQSCG (designed binder) [VEGF_CKP9], for which the “Cellular Assay IC50, mVEGF (50 ng/ml)” value was 10 µM.
Regarding GCTTPWPPHEIMCKQDSDCLAGCVCGPNGFCG (designed binder) [VEGF_CKP12], the “Cellular Assay IC50, mVEGF (50 ng/ml)” value worked out at 243 µM.
On the same count and under the same terms, then GCPTTRFKQYCKQDSDCLAGCVCGPNGFCG (designed binder) [VEGF_CKP6], with 169 µM.

For the origin of these results see US20230174596A1 (published 2023).
